Among the data in PMC3920545 (Journal of molecular biology, 2012) are Kd, koff and kon values, retold here.

For orientation: Kd means the concentration at which binding is half-saturated. In general, koff refers to a measure of how fast the partners let go of each other. Lower therefore signals a long-lived complex. For orientation: kon means the second-order rate constant of association. High values mean faster complex formation, low ones slower complex formation.

The assay has as its target human Toll-like receptor 3 ectodomain (TLR3ecd) (Homo sapiens, UniProt O15455). Put plainly: SPR.

B1: Fab1068 (Fab, V domains shown)
VH: QVQLQQPGAELVQPGTSVRLSCKASGYIFTTYWIHWVKQRPGQGLEWIGEINPNNGRINYNEKFKTKATLTVDKSSSTAYMQLSSLTSEDSAVYYCTRVGVMITTFPYWGQGTLVTVSA
VL: DIQMTQSPASLSASVGETVTITCRASGNIHNYLAWYQQKQGKSPQLLVYNAKTLADGVPSRFSGSESGTQYSLKINSLQPEDFGSYYCQHFWSTPFTFGSGTKLELK
B1 showed a Kd of 29.1 pM, a koff of 0.000103 s⁻¹ and a kon of 3.54e+06 M⁻¹ s⁻¹.
